Data reported in patent US20030170222A1.

Molecular target: Melanocortin MC5 (human recombinant, HEK-293 cells) (human), P33032
Sequence (P33032 whole entry): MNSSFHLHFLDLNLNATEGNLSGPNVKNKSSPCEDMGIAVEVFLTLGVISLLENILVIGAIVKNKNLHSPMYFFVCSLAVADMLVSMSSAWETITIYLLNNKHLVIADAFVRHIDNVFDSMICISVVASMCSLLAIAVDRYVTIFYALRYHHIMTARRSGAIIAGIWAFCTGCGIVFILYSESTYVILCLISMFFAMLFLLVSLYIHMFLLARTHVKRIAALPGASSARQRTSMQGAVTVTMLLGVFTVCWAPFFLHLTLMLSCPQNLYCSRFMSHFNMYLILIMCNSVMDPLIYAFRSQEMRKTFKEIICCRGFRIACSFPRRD

B1: β-Ge14.1-D1 (peptide)
peptide: SLWCVCPFRVCPPCH
modifications: not checked
In the case of B1, the % Inh. is reported as 71%, the IC50 is reported as 294 nM and the Ki is reported as 276 nM.
